# Laboratory results as given in article PMC6818353, “Diversified Application of Barcoded PLATO (PLATO-BC) Platform for Identification of Protein Interactions” (Genomics, Proteomics & Bioinformatics, 2019).
# B1: V5-His6-tagged RIOK3 protein, purified from E. coli (natural protein, human, UniProt O14730 1-519, looked up)
# chain: MDLVGVASPEPGTAAAWGPSKCPWAIPQNTISCSLADVMSEQLAKELQLEEEAAVFPEVAVAEGPFITGENIDTSSDLMLAQMLQMEYDREYDAQLRREEKKFNGDSKVSISFENYRKVHPYEDSDSSEDEVDWQDTRDDPYRPAKPVPTPKKGFIGKGKDITTKHDEVVCGRKNTARMENFAPEFQVGDGIGMDLKLSNHVFNALKQHAYSEERRSARLHEKKEHSTAEKAVDPKTRLLMYKMVNSGMLETITGCISTGKESVVFHAYGGSMEDEKEDSKVIPTECAIKVFKTTLNEFKNRDKYIKDDFRFKDRFSKLNPRKIIRMWAEKEMHNLARMQRAGIPCPTVVLLKKHILVMSFIGHDQVPAPKLKEVKLNSEEMKEAYYQTLHLMRQLYHECTLVHADLSEYNMLWHAGKVWLIDVSQSVEPTHPHGLEFLFRDCRNVSQFFQKGGVKEALSERELFNAVSGLNITADNEADFLAEIEALEKMNEDHVQKNGRKAASFLKDDGDPPLLYDE
# notes: also called V5-fused RIOK3; pET-DEST42-RIOK3; source: E. coli DE3 strain, purified
# Molecular target: T1, N-terminal biotinylated ubiquitin (UniProt P0CG48 1-76, biotin on the N-terminus)
# T1 construct: also called Bio-Ub; free ubiquitin peptide; source: bought: BostonBiochem (Catalog No. UB-570)
# Assay: pull-down; 5 μg His-tagged protein incubated with 1 μg biotinylated molecule (H4ac peptide or Ub) in 50 mM Tris pH 7.5, 150 mM NaCl, 0.1% NP-40, 2 h at 4 °C; captured on streptavidin-coated beads; immunoblot with anti-V5
# Details: both partners purified
binder,measurement,value
B1,binding result,binds
